# PMC12416549 (2024)
# T1: TNFR1 (Homo sapiens, UniProt P19438)
# T1 chain: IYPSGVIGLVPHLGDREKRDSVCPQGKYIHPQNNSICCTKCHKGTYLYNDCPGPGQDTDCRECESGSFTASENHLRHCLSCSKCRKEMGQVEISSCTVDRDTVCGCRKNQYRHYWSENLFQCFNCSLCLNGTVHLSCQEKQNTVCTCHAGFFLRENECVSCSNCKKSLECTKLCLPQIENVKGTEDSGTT
# Biological target: T1, TNFR1
# Assay: yeast display SC50
row,Binder,apparent Kd (screen) [nM]
1,T97F (designed binder) SMEEEVEKAAKEYEKKKKEAIEKHLEKLKAKDKEAAERFLKELEEAAKEYAKDEAKTMSEEEAKRRAKKYKEKVLLSELSEEEQKEIKEAEEKLVRFILKYVEEAAK,0.405
2,E103L (designed binder) SMEEEVEKAAKEYEKKKKEAIEKHLEKLKAKDKEAAERFLKELEEAAKEYAKDEAKTMSEEEAKRRAKKYKEKVLLSELSEEEQKEIKEAEEKLVRTILKYVLEAAK,3
3,A90N (designed binder) SMEEEVEKAAKEYEKKKKEAIEKHLEKLKAKDKEAAERFLKELEEAAKEYAKDEAKTMSEEEAKRRAKKYKEKVLLSELSEEEQKEIKENEEKLVRTILKYVEEAAK,0.446
4,E72N (designed binder) SMEEEVEKAAKEYEKKKKEAIEKHLEKLKAKDKEAAERFLKELEEAAKEYAKDEAKTMSEEEAKRRAKKYKNKVLLSELSEEEQKEIKEAEEKLVRTILKYVEEAAK,1.27
5,E49P (designed binder) SMEEEVEKAAKEYEKKKKEAIEKHLEKLKAKDKEAAERFLKELEEAAKPYAKDEAKTMSEEEAKRRAKKYKEKVLLSELSEEEQKEIKEAEEKLVRTILKYVEEAAK,4.39
6,R65C (designed binder) SMEEEVEKAAKEYEKKKKEAIEKHLEKLKAKDKEAAERFLKELEEAAKEYAKDEAKTMSEEEAKCRAKKYKEKVLLSELSEEEQKEIKEAEEKLVRTILKYVEEAAK,6.43
7,K93E (designed binder) SMEEEVEKAAKEYEKKKKEAIEKHLEKLKAKDKEAAERFLKELEEAAKEYAKDEAKTMSEEEAKRRAKKYKEKVLLSELSEEEQKEIKEAEEELVRTILKYVEEAAK,0.956
8,V102R (designed binder) SMEEEVEKAAKEYEKKKKEAIEKHLEKLKAKDKEAAERFLKELEEAAKEYAKDEAKTMSEEEAKRRAKKYKEKVLLSELSEEEQKEIKEAEEKLVRTILKYREEAAK,2.25
9,L25K (designed binder) SMEEEVEKAAKEYEKKKKEAIEKHKEKLKAKDKEAAERFLKELEEAAKEYAKDEAKTMSEEEAKRRAKKYKEKVLLSELSEEEQKEIKEAEEKLVRTILKYVEEAAK,1.4
10,E22P (designed binder) SMEEEVEKAAKEYEKKKKEAIPKHLEKLKAKDKEAAERFLKELEEAAKEYAKDEAKTMSEEEAKRRAKKYKEKVLLSELSEEEQKEIKEAEEKLVRTILKYVEEAAK,12.5
11,A35L (designed binder) SMEEEVEKAAKEYEKKKKEAIEKHLEKLKAKDKELAERFLKELEEAAKEYAKDEAKTMSEEEAKRRAKKYKEKVLLSELSEEEQKEIKEAEEKLVRTILKYVEEAAK,0.446
12,E89T (designed binder) SMEEEVEKAAKEYEKKKKEAIEKHLEKLKAKDKEAAERFLKELEEAAKEYAKDEAKTMSEEEAKRRAKKYKEKVLLSELSEEEQKEIKTAEEKLVRTILKYVEEAAK,2.25
13,D53R (designed binder) SMEEEVEKAAKEYEKKKKEAIEKHLEKLKAKDKEAAERFLKELEEAAKEYAKREAKTMSEEEAKRRAKKYKEKVLLSELSEEEQKEIKEAEEKLVRTILKYVEEAAK,2.73
14,K73Q (designed binder) SMEEEVEKAAKEYEKKKKEAIEKHLEKLKAKDKEAAERFLKELEEAAKEYAKDEAKTMSEEEAKRRAKKYKEQVLLSELSEEEQKEIKEAEEKLVRTILKYVEEAAK,1.05
15,D32K (designed binder) SMEEEVEKAAKEYEKKKKEAIEKHLEKLKAKKKEAAERFLKELEEAAKEYAKDEAKTMSEEEAKRRAKKYKEKVLLSELSEEEQKEIKEAEEKLVRTILKYVEEAAK,1.05
16,V6A (designed binder) SMEEEAEKAAKEYEKKKKEAIEKHLEKLKAKDKEAAERFLKELEEAAKEYAKDEAKTMSEEEAKRRAKKYKEKVLLSELSEEEQKEIKEAEEKLVRTILKYVEEAAK,0.539
17,K100C (designed binder) SMEEEVEKAAKEYEKKKKEAIEKHLEKLKAKDKEAAERFLKELEEAAKEYAKDEAKTMSEEEAKRRAKKYKEKVLLSELSEEEQKEIKEAEEKLVRTILCYVEEAAK,3
18,V95P (designed binder) SMEEEVEKAAKEYEKKKKEAIEKHLEKLKAKDKEAAERFLKELEEAAKEYAKDEAKTMSEEEAKRRAKKYKEKVLLSELSEEEQKEIKEAEEKLPRTILKYVEEAAK,5.31

row,Binder,apparent Kd (screen) [nM]
1,A10H (designed binder) SMEEEVEKAHKEYEKKKKEAIEKHLEKLKAKDKEAAERFLKELEEAAKEYAKDEAKTMSEEEAKRRAKKYKEKVLLSELSEEEQKEIKEAEEKLVRTILKYVEEAAK,3.3
2,K69S (designed binder) SMEEEVEKAAKEYEKKKKEAIEKHLEKLKAKDKEAAERFLKELEEAAKEYAKDEAKTMSEEEAKRRAKSYKEKVLLSELSEEEQKEIKEAEEKLVRTILKYVEEAAK,0.446
3,K85P (designed binder) SMEEEVEKAAKEYEKKKKEAIEKHLEKLKAKDKEAAERFLKELEEAAKEYAKDEAKTMSEEEAKRRAKKYKEKVLLSELSEEEQPEIKEAEEKLVRTILKYVEEAAK,18.3
4,S1T (designed binder) TMEEEVEKAAKEYEKKKKEAIEKHLEKLKAKDKEAAERFLKELEEAAKEYAKDEAKTMSEEEAKRRAKKYKEKVLLSELSEEEQKEIKEAEEKLVRTILKYVEEAAK,0.49
5,K16Y (designed binder) SMEEEVEKAAKEYEKYKKEAIEKHLEKLKAKDKEAAERFLKELEEAAKEYAKDEAKTMSEEEAKRRAKKYKEKVLLSELSEEEQKEIKEAEEKLVRTILKYVEEAAK,0.446
6,A46G (designed binder) SMEEEVEKAAKEYEKKKKEAIEKHLEKLKAKDKEAAERFLKELEEGAKEYAKDEAKTMSEEEAKRRAKKYKEKVLLSELSEEEQKEIKEAEEKLVRTILKYVEEAAK,0.49
7,E61A (designed binder) SMEEEVEKAAKEYEKKKKEAIEKHLEKLKAKDKEAAERFLKELEEAAKEYAKDEAKTMSEAEAKRRAKKYKEKVLLSELSEEEQKEIKEAEEKLVRTILKYVEEAAK,1.27
8,E19W (designed binder) SMEEEVEKAAKEYEKKKKWAIEKHLEKLKAKDKEAAERFLKELEEAAKEYAKDEAKTMSEEEAKRRAKKYKEKVLLSELSEEEQKEIKEAEEKLVRTILKYVEEAAK,0.539
9,K8Q (designed binder) SMEEEVEQAAKEYEKKKKEAIEKHLEKLKAKDKEAAERFLKELEEAAKEYAKDEAKTMSEEEAKRRAKKYKEKVLLSELSEEEQKEIKEAEEKLVRTILKYVEEAAK,0.956
10,E60R (designed binder) SMEEEVEKAAKEYEKKKKEAIEKHLEKLKAKDKEAAERFLKELEEAAKEYAKDEAKTMSREEAKRRAKKYKEKVLLSELSEEEQKEIKEAEEKLVRTILKYVEEAAK,1.16
11,T57W (designed binder) SMEEEVEKAAKEYEKKKKEAIEKHLEKLKAKDKEAAERFLKELEEAAKEYAKDEAKWMSEEEAKRRAKKYKEKVLLSELSEEEQKEIKEAEEKLVRTILKYVEEAAK,0.304
12,L43T (designed binder) SMEEEVEKAAKEYEKKKKEAIEKHLEKLKAKDKEAAERFLKETEEAAKEYAKDEAKTMSEEEAKRRAKKYKEKVLLSELSEEEQKEIKEAEEKLVRTILKYVEEAAK,0.49
13,E45N (designed binder) SMEEEVEKAAKEYEKKKKEAIEKHLEKLKAKDKEAAERFLKELENAAKEYAKDEAKTMSEEEAKRRAKKYKEKVLLSELSEEEQKEIKEAEEKLVRTILKYVEEAAK,2.48
14,R66L (designed binder) SMEEEVEKAAKEYEKKKKEAIEKHLEKLKAKDKEAAERFLKELEEAAKEYAKDEAKTMSEEEAKRLAKKYKEKVLLSELSEEEQKEIKEAEEKLVRTILKYVEEAAK,18.3
15,A36C (designed binder) SMEEEVEKAAKEYEKKKKEAIEKHLEKLKAKDKEACERFLKELEEAAKEYAKDEAKTMSEEEAKRRAKKYKEKVLLSELSEEEQKEIKEAEEKLVRTILKYVEEAAK,0.79
16,I98Q (designed binder) SMEEEVEKAAKEYEKKKKEAIEKHLEKLKAKDKEAAERFLKELEEAAKEYAKDEAKTMSEEEAKRRAKKYKEKVLLSELSEEEQKEIKEAEEKLVRTQLKYVEEAAK,0.0498
17,A9S (designed binder) SMEEEVEKSAKEYEKKKKEAIEKHLEKLKAKDKEAAERFLKELEEAAKEYAKDEAKTMSEEEAKRRAKKYKEKVLLSELSEEEQKEIKEAEEKLVRTILKYVEEAAK,0.49
